The source of these data is article PMC12458081.

This data set deals with T1, Fkh1-DBD (Saccharomyces cerevisiae, UniProt P40466 299-421).
T1 sequence: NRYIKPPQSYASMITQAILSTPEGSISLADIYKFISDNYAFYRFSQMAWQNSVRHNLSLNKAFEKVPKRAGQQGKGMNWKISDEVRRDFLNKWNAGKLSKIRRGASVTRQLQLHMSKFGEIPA
In words: X-ray crystallography.

B1: 19-bp DNA binding oligo (dsDNA)
DNA 1: CGAAATGTAAACATACCGC
DNA 2: GCGGTATGTTTACATTTCG
Regarding B1, the binding result was “binds”.
